{
  "source": "patent US20060058230A1",
  "about": "(published 2006)",
  "binders": {"B1": {"name": "[Nle^8,β-Ala^18, Nal^23, Tyr^34]bPTH(1-34)NH2 (peptide)", "peptide": "AVSEIQF[Nle]HNLGKHLSS[βAla]ERVE[2Nal]LRKKLQDVHNY-NH2", "modifications": "N-terminus assumed", "SMILES": "CCCC[C@H](NC(=O)[C@H](Cc1ccccc1)NC(=O)[C@H](CCC(N)=O)NC(=O)[C@@H](NC(=O)[C@H](CCC(=O)O)NC(=O)[C@H](CO)NC(=O)[C@@H](NC(=O)[C@H](C)N)C(C)C)[C@@H](C)CC)C(=O)N[C@@H](Cc1c[nH]cn1)C(=O)N[C@@H](CC(N)=O)C(=O)N[C@@H](CC(C)C)C(=O)NCC(=O)N[C@@H](CCCCN)C(=O)N[C@@H](Cc1c[nH]cn1)C(=O)N[C@@H](CC(C)C)C(=O)N[C@@H](CO)C(=O)N[C@@H](CO)C(=O)NCCC(=O)N[C@@H](CCC(=O)O)C(=O)N[C@@H](CCCNC(=N)N)C(=O)N[C@H](C(=O)N[C@@H](CCC(=O)O)C(=O)N[C@@H](Cc1ccc2ccccc2c1)C(=O)N[C@@H](CC(C)C)C(=O)N[C@@H](CCCNC(=N)N)C(=O)N[C@@H](CCCCN)C(=O)N[C@@H](CCCCN)C(=O)N[C@@H](CC(C)C)C(=O)N[C@@H](CCC(N)=O)C(=O)N[C@@H](CC(=O)O)C(=O)N[C@H](C(=O)N[C@@H](Cc1c[nH]cn1)C(=O)N[C@@H](CC(N)=O)C(=O)N[C@@H](Cc1ccc(O)cc1)C(N)=O)C(C)C)C(C)C", "notes": "Synthetic analog of bovine PTH(1-34), carboxamide at the C-terminus"}},
  "key": {"[1]": {"target": "T1, recombinant hPTH1-receptor (human, UniProt Q03431 27-593)", "T1 sequence (looked up)": "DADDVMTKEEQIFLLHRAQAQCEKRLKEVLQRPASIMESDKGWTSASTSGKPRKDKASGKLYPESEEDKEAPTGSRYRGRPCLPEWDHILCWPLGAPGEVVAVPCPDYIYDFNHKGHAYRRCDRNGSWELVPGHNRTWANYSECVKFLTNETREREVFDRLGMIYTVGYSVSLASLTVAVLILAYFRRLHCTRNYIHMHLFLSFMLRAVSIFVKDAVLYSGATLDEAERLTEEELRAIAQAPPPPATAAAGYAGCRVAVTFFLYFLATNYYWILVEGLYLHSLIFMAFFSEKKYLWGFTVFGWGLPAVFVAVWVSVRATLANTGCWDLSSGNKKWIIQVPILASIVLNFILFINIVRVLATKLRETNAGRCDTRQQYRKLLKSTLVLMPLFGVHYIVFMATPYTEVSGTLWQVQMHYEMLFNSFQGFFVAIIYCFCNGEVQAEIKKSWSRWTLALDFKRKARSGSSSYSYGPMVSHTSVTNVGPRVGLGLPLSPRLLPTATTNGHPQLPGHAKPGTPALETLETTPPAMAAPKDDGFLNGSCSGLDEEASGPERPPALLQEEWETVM", "test": "cell-based or functional assay"}, "[2]": {"target": "T1, recombinant hPTH1-receptor", "test": "competition with 125I-[Nle8,18,Nal23,Tyr34]bPTH(1-34)NH2 on HEK293/C21 cells with hPTH1-receptor", "protocol": "Human embryonic kidney (HEK293) cells, stably transfected with recombinant hPTH1-receptor (HEK293/C21 cell line, ˜400,000 receptors/cell) (Pines, M., Adams, A. E., Stueckle, S., Bessalle, R., Rashti-Behar, V., Chorev, M., Rosenblatt, M., and Suva, L. J. Endocrinology 1994, 135, 1713-1716), were maintained in D-MEM medium supplemented with 10% fetal bovine serum and […] glutamine at 37° C. in a humidified atmosphere of 95% air/5% CO₂. The medium was changed every 3-4 days, and the cells were subcultured every week. Ligand stimulated adenylyl cyclase activity and radioreceptor competition binding assays were performed on confluent cultures, 1-3 days after a change of medium.\n[Nle^{8,18},Nal²³,Tyr³⁴]bPTH(1-34)-NH₂ was radioiodinated and the crude material was purified as previously described (Roubini, E., Duong, L. T., Gibbons, S. W., Leu, C. T., Caulfield, M. P., Chorev, M., and Rosenblatt, M. Biochemistry 1992, 31, 4026-4033). Briefly, 67 μg of peptide in 50 μL phosphate buffer, pH 7.4, in a borosilicate tube, coated with 10 μg Iodogen® (Pierce Chemical), were treated at room temperature with 2 mCi [¹²⁵I]Na for 12 min, followed by dilution with 200 μL of 0.1% TFA in water.\nCells were plated in 24-well tissue culture dishes (Corning Glass Works, Corning, N.Y.) and grown to subconfluency. […] After incubation, cells were washed twice with PBS and lysed with 0.1 M NaOH. Radioactivity in the lysate was measured in a γ-counter (Analytic GammaTrac™ 1193)."}},
  "note": "Non-standard residues stand in square brackets, D forms with d. No end group written: not given here. 2Nal = N[C@@H](Cc1ccc2ccccc2c1)C(=O)O; Nle = CCCC[C@H](N)C(=O)O; βAla = NCCC(=O)O",
  "data": [
    {"binder": "B1", "values": [
      {"measurement": "EC50 (half maximal stimulation of adenylate cyclase)", "setting": "[1]", "result": 3.9, "unit": "nM"},
      {"measurement": "IC50", "setting": "[2]", "result": 285, "unit": "nM"}
    ]}
  ]
}
